Paper PMC12627605 (Nature Communications, 2025)

Experiments:
GST-PP2C51 = molecular target: T1, GST-PP2C51 (rice, UniProt Q65XK7 1-381); assay: pull-down
T1 sequence: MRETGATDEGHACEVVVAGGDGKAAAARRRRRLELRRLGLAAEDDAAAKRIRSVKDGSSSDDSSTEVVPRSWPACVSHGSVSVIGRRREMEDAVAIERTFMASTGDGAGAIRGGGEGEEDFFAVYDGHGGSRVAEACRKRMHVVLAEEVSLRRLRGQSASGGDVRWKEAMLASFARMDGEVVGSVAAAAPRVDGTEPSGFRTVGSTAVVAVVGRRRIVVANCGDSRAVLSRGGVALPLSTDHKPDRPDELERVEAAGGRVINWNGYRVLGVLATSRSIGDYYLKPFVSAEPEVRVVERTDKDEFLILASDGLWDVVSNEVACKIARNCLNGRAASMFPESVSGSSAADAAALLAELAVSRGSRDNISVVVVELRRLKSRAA

GST-PP2C30 = molecular target: T2, GST-PP2C30 (rice, UniProt Q84JI0 1-404); assay: pull-down
T2 sequence: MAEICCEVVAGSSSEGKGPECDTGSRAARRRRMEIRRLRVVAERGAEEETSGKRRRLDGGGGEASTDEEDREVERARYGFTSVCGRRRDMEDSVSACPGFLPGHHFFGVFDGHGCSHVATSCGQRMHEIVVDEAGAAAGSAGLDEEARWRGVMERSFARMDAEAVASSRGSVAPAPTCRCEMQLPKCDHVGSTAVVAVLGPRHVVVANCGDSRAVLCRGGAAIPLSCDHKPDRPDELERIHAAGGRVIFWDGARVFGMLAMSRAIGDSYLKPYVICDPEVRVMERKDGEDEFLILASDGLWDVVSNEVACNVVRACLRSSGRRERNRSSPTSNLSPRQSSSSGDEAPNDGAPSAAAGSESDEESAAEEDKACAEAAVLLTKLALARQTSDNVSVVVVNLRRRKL

binding result (GST-PP2C51): binds
binding result (GST-PP2C30): binds
B1: SAPK2-His (natural protein)
chain: MERYEVIKDIGSGNFGVAKLVRDVRTKELFAVKFIERGQKIDENVQREIMNHRSLRHPNIVRFKEVVLTPTHLAIVMEYAAGGELFERICSAGRFSEDEARFFFQQLISGVSYCHSMQICHRDLKLENTLLDGSIAPRLKICDFGYSKSSLLHSQPKSTVGTPAYIAPEVLARKEYDGKVADVWSCGVTLYVMLVGAYPFEDPDEPRNFRKTITRILSVQYMVPDYVRVSMECRHLLSRIFVANPEQRITIPEIKNHPWFLKNLPIEMTDEYQMSVQMNDINTPSQGLEEIMAIIQEARKPGDGSKFSGQIPGLGSMELDDVDTDDIDVEDSGDFVCAL
